B1: EHBP1 CH (calponin homology) domain [human] / EHBP1 bMERB domain (bMERB_(1060-1212), full-length bMERB domain) [human] (parent complex)
chain 1: GRKPNASQSLLVWCKEVTKNYRGVKITNFTTSWRNGLSFCAILHHFRPDLIDYKSLNPQDIKENNKKAYDGFASIGISRLLEPSDMVLLAIPDKLTVMTYLYQIRAHFSGQ
chain 2: not shown

The first assay covers variants of B1. The assay can be described thus: ITC. A general note: ITC needs no label: the signal is the heat of the interaction.
chain 1 D93A: the dissociation constant (Kd) was determined as 43.5 µM.

The variants in another assay derive from B1. The assay can be described thus: ITC. This is another data set of the same source.
In the case of chain 1 M98A, the dissociation constant (Kd) stood at 7.6 µM.

A further assay covers variants of B1. Description: ITC. The source holds these as a separate data set.
On to chain 1 Y102A, for which the Kd came to 5.65 µM.

In the next assay the parent is B1. The assay can be described thus: ITC. This is another data set of the same source.
Take chain 1 Q103A: the Kd was found to be 3.85 µM.

In general, Kd refers to a measure of binding affinity in units of concentration.
